# Literature values as cited in publication PMC12525431, “Hsp70 Peptides Induce TREM-1-Dependent and TREM-1-Independent Activation of Cytotoxic Lymphocytes” (International Journal of Molecular Sciences, 2025).
# B1: eCIRP: RNA-binding protein (eCIRP), TREM-1 ligand (protein, UniProt Q14011 1-172, looked up)
# Cold-inducible RNA-binding …: MASDEGKLFVGGLSFDTNEQSLEQVFSKYGQISEVVVVKDRETQRSRGFGFVTFENIDDAKDAMMAMNGKSVDGRQIRVDQAGKSSDNRSRGYRGGSAGGRGFFRGGRGRGRGFSRGGGDRGYGGNRFESRSGGYGGSRDYYSSRSQSGGYSDRSSGGSYRDSYDSYATHNE
# Target: T1, TREM-1 (Homo sapiens, UniProt Q9NP99)
# T1 construct: causes dissociation of the TREM-1 exocellular domain; made in house
# Conditions: ref [30],[31],[32],[33]
# T1 sequence (Q9NP99 21-205 limits assumed): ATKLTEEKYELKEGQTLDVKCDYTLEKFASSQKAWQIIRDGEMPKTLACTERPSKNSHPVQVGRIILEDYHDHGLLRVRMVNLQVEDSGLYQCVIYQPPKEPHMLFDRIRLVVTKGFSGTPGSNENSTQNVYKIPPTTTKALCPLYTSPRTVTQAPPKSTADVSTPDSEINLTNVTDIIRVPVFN
molecule,measurement,value
B1,TREM-1 ligand,TREM-1 ligands
